Here are results for five molecules from patent US20240076386A1 (Pfizer, published 2024).

Numbering of substitutions follows the chain as printed.

Sequences and labels used below:
T1: human E-selectin coated on the plate of the competition binding ELISA (human, UniProt P16581 22-556, limits assumed)
T1 sequence (looked up): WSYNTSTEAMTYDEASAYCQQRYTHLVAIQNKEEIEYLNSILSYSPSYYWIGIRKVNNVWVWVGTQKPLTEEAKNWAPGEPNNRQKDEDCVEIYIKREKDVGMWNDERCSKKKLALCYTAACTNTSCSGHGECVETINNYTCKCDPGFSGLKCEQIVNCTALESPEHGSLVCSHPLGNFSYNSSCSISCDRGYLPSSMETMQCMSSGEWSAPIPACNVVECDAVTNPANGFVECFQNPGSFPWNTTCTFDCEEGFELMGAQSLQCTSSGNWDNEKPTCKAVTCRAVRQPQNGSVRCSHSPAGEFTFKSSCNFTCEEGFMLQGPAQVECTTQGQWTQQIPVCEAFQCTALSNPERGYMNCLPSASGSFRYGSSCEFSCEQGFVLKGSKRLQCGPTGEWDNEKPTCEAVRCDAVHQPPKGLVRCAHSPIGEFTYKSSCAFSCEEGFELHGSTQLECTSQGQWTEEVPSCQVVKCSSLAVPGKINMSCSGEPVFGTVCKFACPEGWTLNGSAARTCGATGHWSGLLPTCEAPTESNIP

T2: recombinant histidine-tagged human E-selectin (Sino Biologicals; 13025-H08H) (human, UniProt P16581 22-556)
T2 construct: also called recombinant human E-selectin; soluble recombinant human E-selectin
T2 sequence (looked up): T1 sequence (looked up)

T3: recombinant histidine-tagged cynomolgus monkey E-selectin (Sino Biologicals; 190169-C08H) (cynomolgus monkey, UniProt A0A2K5U7H9 22-554)
T3 construct: also called recombinant cynomolgus monkey E-selectin
T3 sequence: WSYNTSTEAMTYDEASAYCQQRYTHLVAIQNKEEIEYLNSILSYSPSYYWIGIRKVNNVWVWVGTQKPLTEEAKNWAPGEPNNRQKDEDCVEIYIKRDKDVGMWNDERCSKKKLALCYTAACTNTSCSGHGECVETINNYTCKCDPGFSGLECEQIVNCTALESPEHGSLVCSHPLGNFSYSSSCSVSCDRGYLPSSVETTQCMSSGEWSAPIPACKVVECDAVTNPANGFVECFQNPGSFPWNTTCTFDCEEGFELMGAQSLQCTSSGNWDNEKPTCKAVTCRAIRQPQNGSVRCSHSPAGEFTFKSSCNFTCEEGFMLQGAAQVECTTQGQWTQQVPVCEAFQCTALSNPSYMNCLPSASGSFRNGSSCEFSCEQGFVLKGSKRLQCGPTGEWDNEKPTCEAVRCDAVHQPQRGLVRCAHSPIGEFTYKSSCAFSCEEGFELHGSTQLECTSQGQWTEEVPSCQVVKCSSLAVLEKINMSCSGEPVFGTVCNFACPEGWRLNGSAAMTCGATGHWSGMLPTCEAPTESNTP

B1: optimized anti-E-selectin antibody 1282 (antibody, human IgG1, kappa, V domains shown)
VH: EVQLVESGGGLVQPGGSLRLSCAASGYAIRSAYMHWVRQAPGKGLEWVARIDPANGNTIYVDSVEGRFTISADNAKNSAYLQMNSLRAEDTAVYYCAMDLYSTSEYWGQGTLVTVSS
VL: DIQMTQSPSSLSASVGDRVTITCKTSQNIERYLNWYQQKPGKAPKLLIYAASSLQSGVPSRFSGSGSGTDFTLTISSLQPEDFATYFCLQDNAWPLTFGQGTKVEIKR
notes: effector-null human IgG1, kappa
B2: optimized anti-E-selectin antibody 1444 (antibody, human IgG1, kappa, V domains shown)
VH: B1 VH with E65T
VL: B1 VL
notes: as for B1
B3: optimized anti-E-selectin antibody 1284 (antibody, human IgG1, kappa, V domains shown)
VH: B1 VH with D62E
VL: B1 VL
notes: as for B1
B4: optimized anti-E-selectin antibody 1448 (antibody, human IgG1, kappa, V domains shown)
VH: B1 VH with E65K, G66E
VL: B1 VL
notes: as for B1
B5: anti-E-selectin antibody 0164 chimera (antibody, human IgG1, kappa, V domains shown)
VH: EVQLQQSGAEFGKPGTSVKLSCKVSGYNIRSSYMHWVNQRPGKGLEWIGRIDPANGNTIYAEKFKIKAILTADSSSNTAYMQLSQLKSDDTAIYFCAMDLYSTSEYWGQGVMVTVSS
VL: DIQMTQSPSFLSASVGDRVTINCKTSQNINRYLNWYQQKLGEAPKLLIYNANSLQTGIPSRFSASGSGTDFTLTINSLQPEDVATYFCLQDNSWPLTFGSGTKLEIKR
notes: rat VH/VL on effector-null human IgG1 and human kappa

For one assay, the target named is T1, human E-selectin coated on the plate of …. The assay can be described thus: competition ELISA (Biotin-164 competitive ELISA) on plate-coated human E-selectin; competitor: biotinylated antibody 0164, OD450; forced degradation samples T0, T2, T4 weeks at 40 C in Tris, His or Glu buffer. Here is the method: To additionally asses stability of the forced degradation samples, the activity of the stressed samples was evaluated in a competition binding ELISA. […] The human E-selectin was stored in PBS with Ca/Mg at 500 μg/mL and was diluted with PBS with Ca/Mg to a concentration of 1 μg/mL. This was added to a 384 well MaxiSorp plate, sealed and incubated at 4° C. with gentle shaking overnight. The next day the reagents in each well were removed, followed by addition of 50 μL of blocking buffer (1% BSA in PBS with Ca/Mg) to each well. The wells were sealed and incubated at room temperature for about 1 hour with gentle shaking.
Next, the wash plate was blocked with 1% BSA with PBST (0.05% Tween) on a […] for 3 cycles using 80 μL for each wash. The plate was tapped on a paper towel to drain. […] The wash step was repeated with 3 cycles of 2 washes. Then, dilute Streptavidin-HRP (˜1/7500 diluted in blocking buffer) was added to each well and the plate was incubated at room temperature with gentle shaking ˜40 minutes to 1 hour. The wash step was again repeated with 3 cycles of 2 washes, tapped dry and followed by the addition of 25 μL of TMB substrate (one component HRP microwell substrate). This was followed by the addition of 25 μL of 0.18 M sulfuric acid to stop the reaction when the color reached saturation (determined by observing the color development). The OD450 measurement of the plate was then read on the Envision plate reader, and the data was analyzed with GraphPad, Prism7.
On the technique in general: In an ELISA, binding on a coated surface is turned into a signal by an enzyme label.
Take B1: the “IC50 (read off the curve)” value was around 10 nM.

As to B2, the “IC50 (read off the curve)” value was around 10 nM.

On to B3, for which the “IC50 (read off the curve)” value is around 10 nM.

As to B4, the “IC50 (read off the curve)” value was around 9 nM.

The target in a further assay is T2, recombinant histidine-tagged human …. The assay can be described thus: competition ELISA, His-tagged E-selectin on Ni-NTA plate vs HRP-conjugated sialyl Lewis A. Here is the method:
(§1) Recombinant histidine-tagged E-selectin; cynomolgus monkey E-selectin (Sino Biologicals; 190169-C08H) and human E-selectin (Sino Biologicals; 13025-H08H) stock solutions were prepared to a final concentration of 3 μg/mL in phosphate buffered saline (PBS) without calcium and magnesium. One hundred μL per well of the diluted recombinant E-selectin protein was added into a Ni-NTA HisSorb 96 well plate (Qiagen, 35061) and plates were incubated on an orbital shaker at room temperature for 2 hours. Sialyl Lewis A polyacrylamide biotin, a synthetic E-selectin ligand (GlycoTech corporation 01-044), was conjugated to streptavidin HRP (horse radish peroxidase) (Ultra Streptavidin HRP, Thermo Scientific N504) and diluted in assay diluent containing 2 mM calcium chloride (BD OptEIA buffer; BD Biosciences, 555213).
(§2) Following the incubation, the plates were washed 5 times with 200 μL of wash buffer containing 2 mM of calcium chloride (50 mM TRIS [trisaminomethane]; 150 mM sodium chloride, 0.05% polysorbate 20, pH 7.4; 2 mM of calcium chloride). […] The final antibody concentration ranged from 200 nM to 0.09 nM and the final concentration of HRP conjugated Sialyl Lewis A was 5 μg/mL. Plates were washed as mentioned before, and 100 μL per well of 1-Step Ultra TMB substrate (Thermo Scientific, 34028) was added and incubated for 5 minutes at room temperature. Reactions were stopped with 100 μl of 2M sulfuric acid and absorbance read at 450 nm (Spectramax M5e). Data were analyzed and graphed using GraphPad Prism software (Version 8.0.2).
As to B1, the IC50 is 3.39 nM.

With B2, the IC50 came to 3.01 nM.

As for B3, the IC50 is 3.59 nM.

On to B4, for which the IC50 is 2.96 nM.

Take B5: the IC50 is 3.39 nM.

Another assay has as its target T3, recombinant histidine-tagged cynomolgus …. Described as above. How it is done:
as §1, §2
Take B1: the half-inhibitory concentration (IC50) was 3.23 nM.

As for B2, the IC50 is 2.91 nM.

For the molecule B3, the IC50 is 3.39 nM.

In the case of B4, the IC50 worked out at 2.74 nM.

In the case of B5, the IC50 turned out to be 3.29 nM.

As usually defined, the IC50 is the concentration needed to halve the response being measured.
